# Measured values as given in paper doi:10.1101/2025.11.21.687491v1.
# B1: AtGSTU17 (U17) (Arabidopsis thaliana) (protein)
# chain: MASSDVKLIGAWASPFVMRPRIALNLKSVPYEFLQETFGSKSELLLKSNPVHKKIPVLLHADKPVSESNIIVEYIDDTWSSSGPSILPSDPYDRAMARFWAAYIDEKWFVALRGFLKAGGEEEKKAVIAQLEEGNAFLEKAFIDCSKGKPFFNGDNIGYLDIALGCFLAWLRVTELAVSYKILDEAKTPSLSKWAENFCNDPAVKPVMPETAKLAEFAKKIFPKPQA
# Tests used:
# Experiment in all cases: purified protein
# Details in all cases: GSH co-substrate, pH 7.0, 37 °C
# purified protein [1] = substrate: CCCC/C=C/C(C/C=C\CCCCCCCC(=O)O)OO
# purified protein [2] = substrate: CCCCC/C=C\CC(/C=C/CCCCCCC(=O)O)OO
# purified protein [3] = substrate: CCCCCC(/C=C/C=C\CCCCCCCC(=O)O)OO
# purified protein [4] = substrate: CCCCC/C=C/C=C/C(CCCCCCCC(=O)O)OO
# purified protein [5] = substrate: CCCCCC(/C=C/C=C/CCCCCCCC(=O)O)OO
protein,measurement,setting,value
B1,Km,purified protein [1],20.4 µM
same,kcat,purified protein [1],2.71 s⁻¹
same,Km,purified protein [2],9.27 µM
same,kcat,purified protein [2],1.46 s⁻¹
same,Km,purified protein [3],10.36 µM
same,kcat,purified protein [3],2.55 s⁻¹
same,Km,purified protein [4],8.97 µM
same,kcat,purified protein [4],1.13 s⁻¹
same,Km,purified protein [5],24.65 µM
same,kcat,purified protein [5],2.44 s⁻¹
